Here are results for one substance from PMC5067699.

As a reminder, the Kd is the constant that tells how readily two partners part at equilibrium. A higher Kd goes with lower affinity.

Assay [1] concerns the target paired-helical filament tau (PHF-tau) from AD brain (human (endogenous in AD patient cortex)) (UniProt P10636). The assay is described as follows: SPR. (Surface plasmon resonance follows binding to a sensor surface in real time, without labels.)
In assay [2] the target is Peptide-7 (tau 195-214, pS199/pS202). The assay is described as follows: SPR.

paired-helical filament tau (PHF-tau) from AD brain (human (endogenous in AD patient cortex)), sequence (P10636 whole entry): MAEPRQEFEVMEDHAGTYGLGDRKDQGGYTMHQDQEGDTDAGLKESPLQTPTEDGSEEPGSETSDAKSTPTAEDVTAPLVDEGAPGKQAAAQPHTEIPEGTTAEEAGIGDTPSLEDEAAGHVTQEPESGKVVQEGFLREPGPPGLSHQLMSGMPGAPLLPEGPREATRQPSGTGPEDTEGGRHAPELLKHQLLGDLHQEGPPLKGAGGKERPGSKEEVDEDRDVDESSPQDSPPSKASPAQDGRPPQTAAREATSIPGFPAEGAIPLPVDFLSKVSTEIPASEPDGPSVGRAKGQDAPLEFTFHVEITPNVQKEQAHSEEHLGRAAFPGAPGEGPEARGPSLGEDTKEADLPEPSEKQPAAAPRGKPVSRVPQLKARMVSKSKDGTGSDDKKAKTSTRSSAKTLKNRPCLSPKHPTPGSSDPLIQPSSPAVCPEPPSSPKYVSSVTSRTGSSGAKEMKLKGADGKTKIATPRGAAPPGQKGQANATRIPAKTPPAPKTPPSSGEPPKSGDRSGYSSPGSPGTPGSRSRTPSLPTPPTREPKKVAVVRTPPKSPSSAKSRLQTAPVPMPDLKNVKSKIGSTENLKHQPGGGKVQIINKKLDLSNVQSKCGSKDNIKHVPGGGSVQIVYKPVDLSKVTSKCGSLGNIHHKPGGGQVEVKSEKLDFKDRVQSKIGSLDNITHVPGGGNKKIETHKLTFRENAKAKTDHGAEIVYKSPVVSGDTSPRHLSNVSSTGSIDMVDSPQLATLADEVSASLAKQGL

In the case of “AT8 Fab (from UniProt P01857 1-103; P01834 1-107)”, the Kd in assay [1] was 0.021 µM; in assay [2], > 1000 µM.
